Experimental data: the supplement of paper PMC9112550, “Optimization of the antimicrobial peptide Bac7 by deep mutational scanning” (BMC Biology, 2022)

System: Escherichia coli TOP10
Test: shrunken log2 fold change of peptide-encoding DNA abundance (4.5 h post-induction vs induction); higher = less antimicrobial activity (less host growth inhibition)
Details: time post-induction: 4.5 h; library: site-saturation at positions 5, 18, 19, 20
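Also: peptides expressed intracellularly from a pBAD plasmid library in pooled LB shake-flask culture, induced with 0.3% L-arabinose, DNA abundance read by NGS, three biological replicates, DESeq2 with apeglm shrinkage.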

Row | Sequence | shrunken log2 fold change
1 | RRIRSRPPRLPRPRPRPCTTPRP | -0.135
2 | RRIRGRPPRLPRPRPRPKLDPRP | 1.2
3 | RRIRIRPPRLPRPRPRPPMCPRP | -0.0556
4 | RRIRLRPPRLPRPRPRPGCGPRP | 0.49
5 | RRIRMRPPRLPRPRPRPTHKPRP | 0.275
6 | RRIRRRPPRLPRPRPRPFPVPRP | 0.271
7 | RRIRQRPPRLPRPRPRPLTNPRP | -0.483
8 | RRIRPRPPRLPRPRPRPDHTPRP | 0.0191
9 | RRIRSRPPRLPRPRPRPLHTPRP | 0.0576
10 | RRIRYRPPRLPRPRPRPHNFPRP | -0.118
11 | RRIRCRPPRLPRPRPRPKDHPRP | 0.0424
12 | RRIRVRPPRLPRPRPRPSQNPRP | -0.242
13 | RRIRIRPPRLPRPRPRPRHGPRP | -0.136
14 | RRIRYRPPRLPRPRPRPSLWPRP | -0.0532
15 | RRIRERPPRLPRPRPRPWNTPRP | -0.00122
16 | RRIRKRPPRLPRPRPRPSARPRP | 0.468
17 | RRIRFRPPRLPRPRPRPEAEPRP | 0.684
18 | RRIRVRPPRLPRPRPRPNRWPRP | -0.0283
19 | RRIRFRPPRLPRPRPRPELVPRP | 0.616
20 | RRIRCRPPRLPRPRPRPPDNPRP | 0.0386
21 | RRIRERPPRLPRPRPRPAKNPRP | -0.0998
22 | RRIRERPPRLPRPRPRPCPCPRP | -0.341
23 | RRIRRRPPRLPRPRPRPYSWPRP | -0.275
24 | RRIRDRPPRLPRPRPRPDMYPRP | 0.214
25 | RRIRYRPPRLPRPRPRPYLFPRP | -0.687

Row | Sequence | shrunken log2 fold change
26 | RRIRYRPPRLPRPRPRPLLRPRP | -0.468
27 | RRIRFRPPRLPRPRPRPQFNPRP | -0.628
28 | RRIRIRPPRLPRPRPRPVMIPRP | -0.00671
29 | RRIRKRPPRLPRPRPRPKHLPRP | -0.334
30 | RRIRNRPPRLPRPRPRPLIMPRP | -0.48
31 | RRIRMRPPRLPRPRPRPGYTPRP | -0.177
32 | RRIRRRPPRLPRPRPRPNYPPRP | 0.0594
33 | RRIRIRPPRLPRPRPRPHDLPRP | -0.057
34 | RRIRWRPPRLPRPRPRPIGEPRP | 0.0833
35 | RRIRVRPPRLPRPRPRPDMSPRP | -0.0318
36 | RRIRDRPPRLPRPRPRPTERPRP | 0.463
37 | RRIRSRPPRLPRPRPRPIHFPRP | -0.106
38 | RRIRFRPPRLPRPRPRPHPQPRP | 0.246
39 | RRIRDRPPRLPRPRPRPIICPRP | -0.0435
40 | RRIRWRPPRLPRPRPRPSCSPRP | -0.349
41 | RRIRARPPRLPRPRPRPQYGPRP | -0.442
42 | RRIRVRPPRLPRPRPRPYAPPRP | -0.0528
43 | RRIRLRPPRLPRPRPRPVMDPRP | -0.0398
44 | RRIRTRPPRLPRPRPRPEQWPRP | -0.0581
45 | RRIRGRPPRLPRPRPRPDVMPRP | 1.33
46 | RRIRIRPPRLPRPRPRPVITPRP | -0.553
47 | RRIRERPPRLPRPRPRPKHDPRP | -0.441
48 | RRIRPRPPRLPRPRPRPKGSPRP | 0.0684
49 | RRIRMRPPRLPRPRPRPLTDPRP | 1.69
50 | RRIRTRPPRLPRPRPRPQDLPRP | -0.0848

Row | Sequence | shrunken log2 fold change
51 | RRIRIRPPRLPRPRPRPMHLPRP | -0.22
52 | RRIRSRPPRLPRPRPRPCFTPRP | -0.521
53 | RRIRRRPPRLPRPRPRPIIAPRP | 0.0198
54 | RRIRWRPPRLPRPRPRPAEIPRP | 0.107
55 | RRIRKRPPRLPRPRPRPSCCPRP | 0.269
56 | RRIRFRPPRLPRPRPRPQFAPRP | 0.0456
57 | RRIRDRPPRLPRPRPRPNLSPRP | -0.115
58 | RRIRYRPPRLPRPRPRPTTLPRP | -0.0157
59 | RRIRGRPPRLPRPRPRPIFCPRP | 0.333
60 | RRIRKRPPRLPRPRPRPEMWPRP | 0.719
61 | RRIRYRPPRLPRPRPRPVPDPRP | -0.0838
62 | RRIRGRPPRLPRPRPRPMCSPRP | 0.606
63 | RRIRRRPPRLPRPRPRPYRLPRP | -0.0421
64 | RRIRYRPPRLPRPRPRPILWPRP | -0.0119
65 | RRIRWRPPRLPRPRPRPIKEPRP | 0.0169
66 | RRIRQRPPRLPRPRPRPDSTPRP | 0.139
67 | RRIRLRPPRLPRPRPRPAIYPRP | -1.28
68 | RRIRARPPRLPRPRPRPFQYPRP | 0.0189
69 | RRIRVRPPRLPRPRPRPHMFPRP | -0.199
70 | RRIRARPPRLPRPRPRPLVQPRP | 0.561
71 | RRIRVRPPRLPRPRPRPSNVPRP | -0.139
72 | RRIRMRPPRLPRPRPRPGMMPRP | 0.185
73 | RRIRPRPPRLPRPRPRPRKRPRP | 0.198
74 | RRIRKRPPRLPRPRPRPEHKPRP | 0.295
75 | RRIRKRPPRLPRPRPRPRSCPRP | 0.239

Row | Sequence | shrunken log2 fold change
76 | RRIRTRPPRLPRPRPRPIRNPRP | -0.324
77 | RRIRWRPPRLPRPRPRPKNKPRP | 0.107
78 | RRIRLRPPRLPRPRPRPFHIPRP | -0.292
79 | RRIRCRPPRLPRPRPRPPPYPRP | 0.511
80 | RRIRDRPPRLPRPRPRPYDSPRP | -0.0305
81 | RRIRMRPPRLPRPRPRPLIHPRP | -0.207
82 | RRIRCRPPRLPRPRPRPELQPRP | 0.251
83 | RRIRYRPPRLPRPRPRPPDVPRP | -0.0764
84 | RRIRMRPPRLPRPRPRPHLNPRP | 0.176
85 | RRIRMRPPRLPRPRPRPREFPRP | 0.0273
86 | RRIRVRPPRLPRPRPRPWLLPRP | 0.208
87 | RRIRQRPPRLPRPRPRPRYDPRP | -0.0523
88 | RRIRYRPPRLPRPRPRPPWGPRP | -0.0336
89 | RRIRWRPPRLPRPRPRPDPAPRP | 0.663
90 | RRIRFRPPRLPRPRPRPTGWPRP | 0.456
91 | RRIRNRPPRLPRPRPRPMHSPRP | -0.0169
92 | RRIRIRPPRLPRPRPRPVCEPRP | 0.0639
93 | RRIRFRPPRLPRPRPRPNLPPRP | -0.454
94 | RRIRPRPPRLPRPRPRPGIQPRP | -0.214
95 | RRIRLRPPRLPRPRPRPAKIPRP | -0.143
96 | RRIRGRPPRLPRPRPRPNPSPRP | 0.294
97 | RRIRRRPPRLPRPRPRPMMVPRP | -0.00292
98 | RRIRHRPPRLPRPRPRPHVSPRP | -0.0122
99 | RRIRYRPPRLPRPRPRPHQMPRP | -0.0207
100 | RRIRARPPRLPRPRPRPGQYPRP | 0.0253

Row | Sequence | shrunken log2 fold change
101 | RRIRQRPPRLPRPRPRPCKPPRP | -0.207
102 | RRIRYRPPRLPRPRPRPTEVPRP | -0.016
103 | RRIRFRPPRLPRPRPRPMICPRP | -0.303
104 | RRIRARPPRLPRPRPRPEYYPRP | -0.059
105 | RRIRGRPPRLPRPRPRPSNAPRP | 0.216
106 | RRIRARPPRLPRPRPRPKPDPRP | 0.582
107 | RRIRKRPPRLPRPRPRPTEKPRP | 0.247
108 | RRIRKRPPRLPRPRPRPISFPRP | -0.1
109 | RRIRSRPPRLPRPRPRPQWWPRP | 0.0138
110 | RRIRPRPPRLPRPRPRPKIHPRP | -0.427
111 | RRIRVRPPRLPRPRPRPPTVPRP | 0.167
112 | RRIRNRPPRLPRPRPRPCSTPRP | -0.194
113 | RRIRGRPPRLPRPRPRPNLGPRP | 0.191
114 | RRIRNRPPRLPRPRPRPNWTPRP | -0.0743
115 | RRIRIRPPRLPRPRPRPKWFPRP | -0.69
116 | RRIRTRPPRLPRPRPRPPKMPRP | 0.18
117 | RRIRSRPPRLPRPRPRPIIMPRP | -0.35
118 | RRIRKRPPRLPRPRPRPPISPRP | 0.22
119 | RRIRERPPRLPRPRPRPIWGPRP | -0.0579
120 | RRIRRRPPRLPRPRPRPVVFPRP | 0.286
121 | RRIRNRPPRLPRPRPRPPHMPRP | -0.217
122 | RRIRMRPPRLPRPRPRPEKVPRP | 1.45
123 | RRIRIRPPRLPRPRPRPDSGPRP | 0.00524
124 | RRIRFRPPRLPRPRPRPWDTPRP | -0.421
125 | RRIRQRPPRLPRPRPRPWRVPRP | -0.049
